Measurements reported in patent publication US20240067690A1.
Where two headings read alike, the source gives them in different places. Blank lines part the entries; values can stand above or below the molecule they belong to.

Experiments:
Assay in all cases: cell-based or functional assay
[1] = target: high affinity (IL2Ra/b/g) IL2 receptor on YT/STAT5-Luc/hIL2Ra reporter cells (human; human (human T/NK cell leukemia YT cell line)) (UniProt P01589)
[2] = target: low affinity (IL2Rb/g) IL2 receptor on YT/STAT5-Luc/IL2Ra KO reporter cells (human (human T/NK cell leukemia YT cell line)) (UniProt P14784)
Sequence of UniProt P14784 (P14784 27-551, chain 1 of 2): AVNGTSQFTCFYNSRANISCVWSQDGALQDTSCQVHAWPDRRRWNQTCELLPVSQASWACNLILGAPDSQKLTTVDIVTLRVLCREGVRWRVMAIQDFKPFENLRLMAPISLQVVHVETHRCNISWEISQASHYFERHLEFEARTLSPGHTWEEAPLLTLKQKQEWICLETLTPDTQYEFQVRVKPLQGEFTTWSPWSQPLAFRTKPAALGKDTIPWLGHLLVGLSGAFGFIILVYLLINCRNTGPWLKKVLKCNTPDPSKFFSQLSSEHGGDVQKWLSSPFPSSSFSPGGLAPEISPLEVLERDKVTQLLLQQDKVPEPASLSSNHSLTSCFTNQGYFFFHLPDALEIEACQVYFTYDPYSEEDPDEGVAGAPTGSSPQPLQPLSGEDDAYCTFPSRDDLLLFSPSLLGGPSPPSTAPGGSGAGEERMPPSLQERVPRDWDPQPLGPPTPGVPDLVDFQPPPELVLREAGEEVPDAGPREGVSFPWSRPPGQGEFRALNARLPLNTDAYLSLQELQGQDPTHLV
Sequence of UniProt P14784 (P31785 23-369, chain 2 of 2, further chain): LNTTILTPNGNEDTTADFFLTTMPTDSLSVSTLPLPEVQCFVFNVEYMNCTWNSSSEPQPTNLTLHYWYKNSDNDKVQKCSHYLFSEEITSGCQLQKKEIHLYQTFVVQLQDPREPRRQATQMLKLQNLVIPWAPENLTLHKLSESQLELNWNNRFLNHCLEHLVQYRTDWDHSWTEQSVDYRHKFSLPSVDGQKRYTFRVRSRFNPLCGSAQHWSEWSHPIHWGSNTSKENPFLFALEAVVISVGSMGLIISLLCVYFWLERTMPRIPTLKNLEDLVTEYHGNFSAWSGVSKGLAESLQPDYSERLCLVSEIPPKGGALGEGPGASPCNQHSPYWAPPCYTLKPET

[3] = target: low affinity (IL2Rb/g) IL2 receptor on YT/STAT5-Luc/IL2Ra KO reporter cells (human (human T/NK cell leukemia YT cell line)) (UniProt P14784); remark: listed apart in the source
[4] = target: high affinity (IL2Ra/b/g) IL2 receptor on YT/STAT5-Luc/hIL2Ra reporter cells (human; human (human T/NK cell leukemia YT cell line)) (UniProt P01589); remark: listed apart in the source

Sequence of UniProt P01589 (P01589 22-272, chain 1 of 3): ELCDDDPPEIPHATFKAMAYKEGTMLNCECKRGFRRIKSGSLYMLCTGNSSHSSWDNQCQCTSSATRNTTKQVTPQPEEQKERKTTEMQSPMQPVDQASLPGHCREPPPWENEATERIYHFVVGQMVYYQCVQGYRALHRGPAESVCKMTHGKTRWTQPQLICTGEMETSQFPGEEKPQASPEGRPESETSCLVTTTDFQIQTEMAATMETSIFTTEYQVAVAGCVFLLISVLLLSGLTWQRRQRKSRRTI
Sequence of UniProt P01589 (P14784 27-551, chain 2 of 3, further chain): as the sequence (P14784 27-551, chain 1 of 2) above
Sequence of UniProt P01589 (P31785 23-369, chain 3 of 3, further chain): as the sequence (P31785 23-369, chain 2 of 2, further chain) above

Molecule: IL2(E68C)-mmh (REGN7184), dimeric human IL-2 (E68C) with a C-terminal myc-myc-hexahistidine (mmh) tag (ligand)
- EC50, STAT5-luciferase reporter assay, YT/Stat5-Luc/IL2Ra KO cells [2]: 0.847 nM
- EC50, STAT5-luciferase reporter assay, YT/Stat5-Luc/hIL2Ra cells (M (unit not given)) [1]: 5.63e-10
- fold less potency than IL2-mmh (REGN7183), STAT5-luciferase reporter assay, YT/STAT5-Luc/hIL2Ra cells [1]: 34 fold

Molecule: IL2-Fc (REGN8189) (Fc fusion)
- EC50, STAT5-luciferase reporter assay, YT/Stat5-Luc/IL2Ra KO cells [2]: 0.542 nM

Molecule: IL2-Fc (REGN8189) (Fc fusion; in M (unit assumed))
- EC50, STAT5-luciferase reporter assay, YT/Stat5-Luc/hIL2Ra cells (M (unit not given)) [1]: 1.69e-11

Further lines, results first:

- EC50, STAT5-luciferase reporter assay, YT/Stat5-Luc/hIL2Ra cells (M (unit not given)) [1]: 1.65e-11
Molecule: IL2-mmh (REGN7183), monomeric human IL-2 with a C-terminal myc-myc-hexahistidine (mmh) tag (ligand; in M (unit assumed))

- EC50, STAT5-luciferase reporter assay, YT/Stat5-Luc/IL2Ra KO cells [2]: 0.622 nM
Molecule: IL2-mmh (REGN7183), monomeric human IL-2 with a C-terminal myc-myc-hexahistidine (mmh) tag (ligand)

- EC50, STAT5-luciferase reporter assay, YT/Stat5-Luc/IL2Ra KO cells [3]: 0.628 nM
- EC50, STAT5-luciferase reporter assay, YT/Stat5-Luc/hIL2Ra cells (M (unit not given)) [4]: 5.17e-11
- fold less potency than IL2-Fc (REGN8189), STAT5-luciferase reporter assay, YT/STAT5-Luc/hIL2Ra cells [4]: 3 fold
B1: IL2(3m)-Fc (REGN8190) (Fc fusion)
chain: APTSSSTKKTQLQLEHLLLDLQMILNGINNYKNPKLTRMLTAKFAMPKKATELKHLQCLEEELKPLEEVLNGAQSKNFHLRPRDLISNINVIVLELKGSETTFMCEYADETATIVEFLNRWITFCQSIISTLTGGGGSESKYGPPCPPCPAPPVAGPSVFLFPPKPKDTLMISRTPEVTCVVVDVSQEDPEVQFNWYVDGVEVHNAKTKPREEQFNSTYRVVSVLTVLHQDWLNGKEYKCKVSNKGLPSSIEKTISKAKGQPREPQVYTLPPSQEEMTKNQVSLTCLVKGFYPSDIAVEWESNGQPENNYKTTPPVLDSDGSFFLYSRLTVDKSRWQEGNVFSCSVMHEALHNHYTQKSLSLSLGK
